Values quoted from earlier work, collected in article PMC3210452.
Read-outs that look alike come from different tables or passages of the source.

Key:
[1] = molecular target: P-type voltage-gated calcium channel (UniProt P54282)
[2] = molecular target: Q-type voltage-gated calcium channel (UniProt O00555)
[3] = molecular target: P-type voltage-gated calcium channel (UniProt P54282); remark: listed apart in the source

Sequence of UniProt P54282 (P54282 whole entry): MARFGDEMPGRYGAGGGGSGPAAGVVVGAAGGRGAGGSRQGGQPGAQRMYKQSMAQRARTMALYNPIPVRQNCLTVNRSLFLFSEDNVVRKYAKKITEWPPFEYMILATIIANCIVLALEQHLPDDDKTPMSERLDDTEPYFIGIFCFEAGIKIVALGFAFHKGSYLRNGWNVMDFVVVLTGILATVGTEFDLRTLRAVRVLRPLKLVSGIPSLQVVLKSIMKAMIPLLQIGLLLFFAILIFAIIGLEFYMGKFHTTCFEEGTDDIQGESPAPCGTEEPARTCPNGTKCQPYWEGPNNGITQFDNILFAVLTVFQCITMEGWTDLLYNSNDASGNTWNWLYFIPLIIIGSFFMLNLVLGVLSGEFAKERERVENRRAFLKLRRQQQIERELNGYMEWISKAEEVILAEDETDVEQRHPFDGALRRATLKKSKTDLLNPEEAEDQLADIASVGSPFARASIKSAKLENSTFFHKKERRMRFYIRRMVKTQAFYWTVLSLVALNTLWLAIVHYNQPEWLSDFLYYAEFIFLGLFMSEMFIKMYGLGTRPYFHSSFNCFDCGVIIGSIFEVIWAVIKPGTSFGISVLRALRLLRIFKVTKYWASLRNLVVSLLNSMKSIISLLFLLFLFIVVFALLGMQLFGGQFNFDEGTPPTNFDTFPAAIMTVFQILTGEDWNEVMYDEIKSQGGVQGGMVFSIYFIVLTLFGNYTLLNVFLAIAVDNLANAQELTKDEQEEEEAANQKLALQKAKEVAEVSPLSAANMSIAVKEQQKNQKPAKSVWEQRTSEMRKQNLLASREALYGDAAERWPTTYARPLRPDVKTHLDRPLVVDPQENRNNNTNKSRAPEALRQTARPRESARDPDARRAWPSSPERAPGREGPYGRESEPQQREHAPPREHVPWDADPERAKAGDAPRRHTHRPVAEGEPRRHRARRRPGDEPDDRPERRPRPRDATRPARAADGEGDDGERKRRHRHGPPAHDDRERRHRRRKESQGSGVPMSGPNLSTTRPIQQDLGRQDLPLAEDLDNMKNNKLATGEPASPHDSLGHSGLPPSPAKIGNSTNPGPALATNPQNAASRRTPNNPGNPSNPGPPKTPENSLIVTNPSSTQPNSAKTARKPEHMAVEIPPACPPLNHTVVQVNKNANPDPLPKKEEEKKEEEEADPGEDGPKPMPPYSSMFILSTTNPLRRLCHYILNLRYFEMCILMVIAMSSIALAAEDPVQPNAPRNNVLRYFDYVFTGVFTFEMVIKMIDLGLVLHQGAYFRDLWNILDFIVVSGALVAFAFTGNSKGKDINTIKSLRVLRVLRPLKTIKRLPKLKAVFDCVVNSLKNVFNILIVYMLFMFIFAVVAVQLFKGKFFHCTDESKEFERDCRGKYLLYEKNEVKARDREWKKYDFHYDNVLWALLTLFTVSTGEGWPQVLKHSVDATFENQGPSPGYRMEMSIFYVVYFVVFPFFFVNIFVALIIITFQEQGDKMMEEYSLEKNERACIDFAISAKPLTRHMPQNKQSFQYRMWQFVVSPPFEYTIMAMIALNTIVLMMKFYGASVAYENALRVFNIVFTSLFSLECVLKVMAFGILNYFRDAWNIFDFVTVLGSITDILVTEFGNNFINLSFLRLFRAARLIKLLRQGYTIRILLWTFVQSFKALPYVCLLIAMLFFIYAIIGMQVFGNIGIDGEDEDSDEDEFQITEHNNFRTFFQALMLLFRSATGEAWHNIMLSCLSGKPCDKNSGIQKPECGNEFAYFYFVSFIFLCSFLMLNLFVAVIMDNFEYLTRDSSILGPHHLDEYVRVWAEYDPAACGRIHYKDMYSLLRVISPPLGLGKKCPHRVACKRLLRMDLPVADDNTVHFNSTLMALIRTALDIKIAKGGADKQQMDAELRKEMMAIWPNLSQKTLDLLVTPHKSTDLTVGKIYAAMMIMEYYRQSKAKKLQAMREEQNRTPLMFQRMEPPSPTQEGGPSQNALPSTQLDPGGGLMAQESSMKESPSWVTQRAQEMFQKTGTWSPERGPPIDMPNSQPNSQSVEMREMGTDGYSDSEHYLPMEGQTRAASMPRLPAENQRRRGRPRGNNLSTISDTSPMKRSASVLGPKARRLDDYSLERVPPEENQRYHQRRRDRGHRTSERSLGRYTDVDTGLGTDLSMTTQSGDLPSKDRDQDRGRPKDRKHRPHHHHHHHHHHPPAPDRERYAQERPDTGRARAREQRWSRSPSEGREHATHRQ
Sequence of UniProt O00555 (O00555 whole entry): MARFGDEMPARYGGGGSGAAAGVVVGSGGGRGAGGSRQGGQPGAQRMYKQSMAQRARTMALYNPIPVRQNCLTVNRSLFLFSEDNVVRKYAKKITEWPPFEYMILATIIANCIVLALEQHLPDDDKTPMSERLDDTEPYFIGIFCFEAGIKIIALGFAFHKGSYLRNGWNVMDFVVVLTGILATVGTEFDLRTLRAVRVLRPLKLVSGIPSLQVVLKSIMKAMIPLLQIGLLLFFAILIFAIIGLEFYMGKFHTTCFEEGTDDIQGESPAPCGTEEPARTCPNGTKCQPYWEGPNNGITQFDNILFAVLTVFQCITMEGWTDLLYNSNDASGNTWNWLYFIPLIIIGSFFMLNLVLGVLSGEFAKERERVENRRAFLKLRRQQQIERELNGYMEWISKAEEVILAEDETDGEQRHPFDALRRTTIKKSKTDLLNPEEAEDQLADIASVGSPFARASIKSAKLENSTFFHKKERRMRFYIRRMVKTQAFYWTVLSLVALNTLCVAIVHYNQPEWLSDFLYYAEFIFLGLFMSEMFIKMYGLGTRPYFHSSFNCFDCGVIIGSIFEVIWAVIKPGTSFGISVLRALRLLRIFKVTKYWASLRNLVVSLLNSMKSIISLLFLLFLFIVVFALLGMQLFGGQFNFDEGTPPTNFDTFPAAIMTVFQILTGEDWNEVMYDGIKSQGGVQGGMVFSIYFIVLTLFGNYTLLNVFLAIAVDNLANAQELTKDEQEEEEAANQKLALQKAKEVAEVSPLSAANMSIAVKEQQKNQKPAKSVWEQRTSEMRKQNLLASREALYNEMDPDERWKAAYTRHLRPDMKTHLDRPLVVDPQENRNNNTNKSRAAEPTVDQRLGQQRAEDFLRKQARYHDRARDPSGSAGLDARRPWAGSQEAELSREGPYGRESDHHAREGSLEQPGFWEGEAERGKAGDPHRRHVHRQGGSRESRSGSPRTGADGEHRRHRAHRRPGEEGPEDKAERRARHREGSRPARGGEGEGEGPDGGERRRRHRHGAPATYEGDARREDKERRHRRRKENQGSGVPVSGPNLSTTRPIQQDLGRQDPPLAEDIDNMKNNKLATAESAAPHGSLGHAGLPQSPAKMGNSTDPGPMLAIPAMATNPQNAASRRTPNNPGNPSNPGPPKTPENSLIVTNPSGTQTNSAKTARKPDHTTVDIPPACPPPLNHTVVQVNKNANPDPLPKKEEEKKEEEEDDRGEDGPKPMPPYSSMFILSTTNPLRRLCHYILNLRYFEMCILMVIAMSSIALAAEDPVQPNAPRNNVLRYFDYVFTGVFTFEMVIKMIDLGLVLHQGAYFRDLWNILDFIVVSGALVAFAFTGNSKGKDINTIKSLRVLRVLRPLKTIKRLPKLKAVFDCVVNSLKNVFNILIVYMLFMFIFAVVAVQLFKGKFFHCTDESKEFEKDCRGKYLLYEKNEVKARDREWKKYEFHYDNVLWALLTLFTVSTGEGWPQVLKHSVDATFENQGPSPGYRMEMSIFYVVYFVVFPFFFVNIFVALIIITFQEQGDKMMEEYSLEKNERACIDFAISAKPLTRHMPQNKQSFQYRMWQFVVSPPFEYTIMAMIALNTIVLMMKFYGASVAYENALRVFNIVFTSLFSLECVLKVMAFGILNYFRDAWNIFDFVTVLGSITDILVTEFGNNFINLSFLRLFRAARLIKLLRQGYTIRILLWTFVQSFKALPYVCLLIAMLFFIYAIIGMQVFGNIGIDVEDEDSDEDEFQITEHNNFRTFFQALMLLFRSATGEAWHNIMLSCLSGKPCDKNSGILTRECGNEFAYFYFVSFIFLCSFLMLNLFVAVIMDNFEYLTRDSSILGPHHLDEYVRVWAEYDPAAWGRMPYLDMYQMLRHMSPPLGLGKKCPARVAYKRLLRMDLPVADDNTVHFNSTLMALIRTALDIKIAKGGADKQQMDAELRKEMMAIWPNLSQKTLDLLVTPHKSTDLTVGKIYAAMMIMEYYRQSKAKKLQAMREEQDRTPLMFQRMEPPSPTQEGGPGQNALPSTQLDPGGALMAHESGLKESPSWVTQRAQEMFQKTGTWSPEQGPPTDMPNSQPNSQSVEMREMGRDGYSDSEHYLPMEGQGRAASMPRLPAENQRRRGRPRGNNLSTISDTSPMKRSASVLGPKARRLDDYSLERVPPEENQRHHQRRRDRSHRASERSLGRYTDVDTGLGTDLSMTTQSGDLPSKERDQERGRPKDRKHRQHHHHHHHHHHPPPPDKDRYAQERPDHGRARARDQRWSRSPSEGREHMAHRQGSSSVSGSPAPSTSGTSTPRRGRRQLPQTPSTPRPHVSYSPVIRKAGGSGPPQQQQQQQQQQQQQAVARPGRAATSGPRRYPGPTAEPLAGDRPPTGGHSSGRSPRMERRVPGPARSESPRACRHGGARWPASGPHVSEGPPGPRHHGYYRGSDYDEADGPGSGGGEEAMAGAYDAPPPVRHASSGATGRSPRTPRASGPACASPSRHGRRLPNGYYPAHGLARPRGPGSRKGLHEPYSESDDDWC

Substance | Kd [1] | Kd [2] | Kd [3]
ω-agatoxin IVA (from UniProt P30288) | 2 nM | 100 nM | 
ω-agatoxin IVB (from UniProt P37045) |  |  | 3 nM
